Experimental data reported in US20230020362A1, “INFECTIOUS DISEASE VACCINES” (priority 2015, published 2023).

What was measured:
Assay in all cases: ProImmune REVEAL binding assay
A*24:02 = A*24:02 (Homo sapiens, UniProt P04439, D101N/D140Y/D185E/E176V/E190D/F33S/G103R/G107R/I119L/I121M/I306V/K335N/L105A/L180Q/L300P/N151K/N90K/Q86E/Q94H/R106L/R138H/R89G/T104I/T345S/V100E/W191G/Y123F)
A*02:01 = A*02:01 (Homo sapiens, UniProt P04439, D140Y/D185E/D98H/E176V/E277Q/G131W/G231S/I119V/I121R/I166T/I218V/L300P/L318F/N151K/N90K/P208A/P217A/Q86G/Q94H/R138H/R169H/T345S)
B*07:02 = B*07:02 (Homo sapiens, UniProt P01889)
H-2Kb = molecular target: T1, H-2Kb (Mus musculus, UniProt P01901)
T1 sequence (P01901 22-295 limits assumed): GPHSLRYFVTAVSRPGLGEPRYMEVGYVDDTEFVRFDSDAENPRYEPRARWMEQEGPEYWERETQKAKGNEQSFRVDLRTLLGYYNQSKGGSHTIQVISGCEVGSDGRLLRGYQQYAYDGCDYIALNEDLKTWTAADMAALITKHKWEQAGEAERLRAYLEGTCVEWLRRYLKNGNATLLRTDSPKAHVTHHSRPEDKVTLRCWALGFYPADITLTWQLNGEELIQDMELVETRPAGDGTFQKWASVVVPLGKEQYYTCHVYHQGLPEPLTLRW
T1 sequence (P01887 21-119 partner): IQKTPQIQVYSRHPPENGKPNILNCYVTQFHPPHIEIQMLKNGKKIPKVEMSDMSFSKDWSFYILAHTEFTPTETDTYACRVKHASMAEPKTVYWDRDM

A*11:01 = A*11:01 (Homo sapiens, UniProt P04439, A114D/D185E/E176A/F33Y/L180Q/S129P/T187R)
B*27:05 = B*27:05 (Homo sapiens, UniProt P01889, D138H/D201E/E176V/E204Q/G107R/H137Y/K202T/N104T/N87E/Q56L/Q94K/R106L/R155S/R180L/S101D/S121N/S48T/Y140D/Y33H/Y91C)
A*03:01 = A*03:01 (Homo sapiens, UniProt P04439)
A*01:01 = A*01:01 (Homo sapiens, UniProt P04439, A114D/A174V/A182V/D101N/D185E/E176A/E190D/L180R/Q94H/R68K/S129P/T187R/V100A/V91M/W191G)

WTEAKMLLD
REVEAL® score at 0 h (A*24:02): 94.7

VVAAEMEEA
REVEAL® score at 0 h (A*02:01): 92.2

LSRNSTHEM
REVEAL® score at 0 h (B*07:02): 124.5
REVEAL® score at 0 h (H-2Kb): 51.1

VYNMMGKRE
REVEAL® score at 0 h (A*11:01): 62.5

RQWFFDLPL
REVEAL® Score (A*02:01): 80.5

NMMGKREKK
REVEAL® score at 0 h (A*11:01): 77.9

LMYFHRRDL
REVEAL® score at 0 h (B*07:02): 119.6
REVEAL® score at 0 h (A*02:01): 97.8
REVEAL® score at 0 h (H-2Kb): 54.9

KQWFLDLPL
REVEAL® Score (A*02:01): 86.0

AMTDTTPFG
REVEAL® score at 0 h (A*02:01): 91.9

GEAAAIFMT
REVEAL® score at 0 h (A*24:02): 58.9
REVEAL® score at 0 h (A*02:01): 74.3
REVEAL® score at 0 h (A*11:01): 50.3

AISGDDCVV
REVEAL® score at 0 h (A*02:01): 91.1

RRGDLPVWL
REVEAL® score at 0 h (B*27:05): 144.8

GLYGNGVVT
REVEAL® score at 0 h (A*02:01): 87.7

GTYGLNTFT
REVEAL® score at 0 h (A*11:01): 63.6

MWHVTRGAV
REVEAL® score at 0 h (A*02:01): 62.7

MGEAAAIFM
REVEAL® score at 0 h (A*02:01): 50.6

LMCHATFTM
REVEAL® score at 0 h (A*24:02): 99.5
REVEAL® score at 0 h (A*02:01): 72.9
REVEAL® score at 0 h (B*27:05): 98.2
REVEAL® score at 0 h (H-2Kb): 59.0

SRNSTHEMY
REVEAL® score at 0 h (B*07:02): 52.0

VGTYGLNTF
REVEAL® score at 0 h (A*24:02): 96.0

YGLNTFTNM
REVEAL® score at 0 h (H-2Kb): 75.4

LLCDIGESS
REVEAL® score at 0 h (A*02:01): 93.9

YFHRRDLRL
REVEAL® score at 0 h (A*24:02): 87.5

FKPGTSGSP
REVEAL® score at 0 h (B*07:02): 50.4
REVEAL® score at 0 h (H-2Kb): 45.7

TPFGQQRVF
REVEAL® score at 0 h (B*07:02): 112.7

TMWHVTRGA
REVEAL® score at 0 h (A*02:01): 112.0

GQQRVFKEK
REVEAL® score at 0 h (A*02:01): 47.1
REVEAL® score at 0 h (A*11:01): 85.5
REVEAL® score at 0 h (A*03:01): 59.6
REVEAL® score at 0 h (B*27:05): 95.4

KLTYQNKVV
REVEAL® score at 0 h (A*02:01): 92.3

MAMTDTTPF
REVEAL® score at 0 h (A*24:02): 51.3
REVEAL® score at 0 h (B*07:02): 117.4

CVYNMMGKR
REVEAL® score at 0 h (A*11:01): 113.2
REVEAL® score at 0 h (A*03:01): 81.6

IVDLMCHAT
REVEAL® score at 0 h (A*02:01): 62.7

YNMMGKREK
REVEAL® score at 0 h (A*11:01): 80.9

FKLTYQNKV
REVEAL® score at 0 h (B*27:05): 53.7

LGCGRGGWS
REVEAL® score at 0 h (A*24:02): 74.8

MCHATFTMR
REVEAL® score at 0 h (A*11:01): 91.0
REVEAL® score at 0 h (A*03:01): 86.8

TLLCDIGES
REVEAL® score at 0 h (A*02:01): 63.9

LMRRGDLPV
REVEAL® score at 0 h (B*07:02): 178.9
REVEAL® score at 0 h (A*02:01): 82.3

TTDISEMGA
REVEAL® score at 0 h (A*01:01): 68.4

ARGYISTRV
REVEAL® score at 0 h (B*27:05): 125.3

PERVILAGP
REVEAL® score at 0 h (B*07:02): 56.1

HWTEAKMLL
REVEAL® score at 0 h (A*24:02): 103.2

ATFTMRLLS
REVEAL® score at 0 h (A*11:01): 58.5
REVEAL® score at 0 h (H-2Kb): 55.6

IPERSWNSG
REVEAL® score at 0 h (B*07:02): 45.2

LAPTRVVAA
REVEAL® score at 0 h (H-2Kb): 102.5

QQRVFKEKV
REVEAL® score at 0 h (H-2Kb): 63.4

ISGDDCVVK
REVEAL® score at 0 h (A*11:01): 88.7

PLSRNSTHE
REVEAL® score at 0 h (B*07:02): 65.0

TVWFVPSIK
REVEAL® score at 0 h (A*11:01): 92.2

HTMWHVTRG
REVEAL® score at 0 h (A*11:01): 56.3

CHATFTMRL
REVEAL® score at 0 h (A*24:02): 75.9
REVEAL® score at 0 h (H-2Kb): 60.3

HATFTMRLL
REVEAL® score at 0 h (H-2Kb): 69.5
